Experimental findings from KR20240034671A (dated 2024) are described below.

This test addresses T1, human PTK7-Ig3-4-His (human, UniProt Q13308 221-409, limits assumed).
T1 construct: domain: Ig3-4; Made from the hPTK7-Ig1-4-His construct by DpnI-mediated deletion mutagenesis; expressed in HEK293 cells; also called hPTK7-Ig3-4-His; STK7-lg3-4-His [sic]
T1 sequence: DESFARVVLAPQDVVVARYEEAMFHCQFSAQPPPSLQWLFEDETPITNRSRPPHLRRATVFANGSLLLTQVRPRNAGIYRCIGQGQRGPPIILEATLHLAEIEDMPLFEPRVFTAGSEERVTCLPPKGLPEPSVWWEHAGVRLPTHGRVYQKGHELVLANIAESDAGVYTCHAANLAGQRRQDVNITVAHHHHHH
Kind of test: Ni-NTA pull-down of His-tagged construct incubated with mAb at 1:1 molar ratio, western blot.

B1: anti-PTK7 mAb-52 (antibody, V domains shown)
VH: EVQLQQSGAELVKPGASVKLSCTASGFNIEDTYIHWVKQRPEQGLEWIGRIDPANGNDKYDPKFQGKATITADTSSNTAYLQLSSLTSEDTAVYYCARGDANYGSYWGQGTLVTVSA
VL: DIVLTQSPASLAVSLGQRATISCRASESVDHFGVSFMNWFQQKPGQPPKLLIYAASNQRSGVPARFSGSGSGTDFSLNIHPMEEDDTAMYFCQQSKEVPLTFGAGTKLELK
notes: Mouse monoclonal antibody from a hybridoma raised against purified human sPTK7, purified from ascites
B1: the binding result is recorded as “no binding”.
